According to US6548290 (Harvard, dated 2003):

T1: Xenopus Geminin-H, translated in vitro
T1 sequence: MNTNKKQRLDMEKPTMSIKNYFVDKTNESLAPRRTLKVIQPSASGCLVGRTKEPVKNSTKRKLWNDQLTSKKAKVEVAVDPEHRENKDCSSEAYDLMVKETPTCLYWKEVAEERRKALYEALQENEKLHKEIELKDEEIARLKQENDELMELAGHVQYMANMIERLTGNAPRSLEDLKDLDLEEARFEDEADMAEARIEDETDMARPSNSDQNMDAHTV

T2: geminin^DEL (geminin H with the nine amino acids of the destruction box RRTLKVIQP, 33-41, removed), translated in vitro
T2 sequence: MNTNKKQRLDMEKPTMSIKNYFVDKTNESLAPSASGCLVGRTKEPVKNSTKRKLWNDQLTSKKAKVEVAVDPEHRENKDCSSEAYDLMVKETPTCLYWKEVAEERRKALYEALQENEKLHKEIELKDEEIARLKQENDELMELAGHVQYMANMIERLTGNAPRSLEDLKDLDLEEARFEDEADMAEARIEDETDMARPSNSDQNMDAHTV

T3: Xorc2 (Xenopus, UniProt Q91628 1-558)
T3 sequence (looked up): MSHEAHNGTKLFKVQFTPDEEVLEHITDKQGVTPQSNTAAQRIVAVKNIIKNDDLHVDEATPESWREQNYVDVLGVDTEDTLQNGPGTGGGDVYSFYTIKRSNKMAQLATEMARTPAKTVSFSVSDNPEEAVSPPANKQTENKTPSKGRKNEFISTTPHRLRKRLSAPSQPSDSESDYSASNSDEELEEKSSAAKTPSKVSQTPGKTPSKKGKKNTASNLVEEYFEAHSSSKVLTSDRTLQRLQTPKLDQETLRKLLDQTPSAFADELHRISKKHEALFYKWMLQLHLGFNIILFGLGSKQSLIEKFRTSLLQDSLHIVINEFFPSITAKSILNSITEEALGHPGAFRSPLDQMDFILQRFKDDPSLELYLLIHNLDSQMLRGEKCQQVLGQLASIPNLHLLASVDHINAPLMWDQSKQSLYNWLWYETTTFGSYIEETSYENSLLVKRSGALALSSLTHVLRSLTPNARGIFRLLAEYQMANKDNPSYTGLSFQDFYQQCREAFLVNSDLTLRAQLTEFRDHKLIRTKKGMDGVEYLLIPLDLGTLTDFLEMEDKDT

T4: Xmcm3 (Xenopus, UniProt P49739 1-807)
T4 sequence (looked up): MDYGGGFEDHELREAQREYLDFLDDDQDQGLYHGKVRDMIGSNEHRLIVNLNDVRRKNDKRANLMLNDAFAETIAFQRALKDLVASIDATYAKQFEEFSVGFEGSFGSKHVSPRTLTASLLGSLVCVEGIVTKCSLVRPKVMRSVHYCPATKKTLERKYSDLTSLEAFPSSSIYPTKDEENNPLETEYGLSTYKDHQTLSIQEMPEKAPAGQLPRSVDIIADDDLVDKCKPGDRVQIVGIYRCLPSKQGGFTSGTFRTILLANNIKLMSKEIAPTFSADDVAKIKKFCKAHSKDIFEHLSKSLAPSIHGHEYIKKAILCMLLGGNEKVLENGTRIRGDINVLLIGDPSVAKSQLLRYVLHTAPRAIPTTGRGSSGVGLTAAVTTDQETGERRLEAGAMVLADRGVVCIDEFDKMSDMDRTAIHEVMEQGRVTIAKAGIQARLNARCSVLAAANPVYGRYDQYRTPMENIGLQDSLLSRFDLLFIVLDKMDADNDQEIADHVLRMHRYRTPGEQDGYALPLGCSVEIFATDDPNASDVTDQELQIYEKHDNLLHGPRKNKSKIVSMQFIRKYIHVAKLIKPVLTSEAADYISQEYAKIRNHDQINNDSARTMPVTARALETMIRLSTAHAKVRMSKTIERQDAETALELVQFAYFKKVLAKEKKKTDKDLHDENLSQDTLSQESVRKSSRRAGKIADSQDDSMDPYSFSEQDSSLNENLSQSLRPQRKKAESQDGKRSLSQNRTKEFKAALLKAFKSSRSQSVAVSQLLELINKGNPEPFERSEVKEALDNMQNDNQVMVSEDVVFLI


Experiments:
[1] = system: T1, Xenopus Geminin-H, translated in vitro
[2] = system: T2, geminin^DEL (geminin H with the nine amino acids of the destruction box RRTLKVIQP, 33-41, removed), translated in vitro
[3] = target: T3, Xorc2; test: co-immunoprecipitation (preliminary experiments)
[4] = target: T4, Xmcm3; test: co-immunoprecipitation (preliminary experiments)

Molecule	ubiquitin conjugates (ladder on autoradiogram) in a reconstituted ubiquitination reaction [1]	ubiquitin conjugates (ladder on autoradiogram) in a reconstituted ubiquitination reaction [2]	binding result [3]	binding result [4]
interphase APC (immunoprecipitated from interphase Xenopus egg extract)	The ladder did not appear ... if the APC was immunoprecipitated from interphase extracts (lane 7)	–	–	–
mitotic anaphase promoting complex (APC) of Xenopus mitotic egg extract	a characteristic ladder of ubiquitin conjugates appeared above the starting material	The ladder did not appear if the destruction box mutant geminin^DEL was used as the substrate	–	–
geminin (Xenopus; as used in the co-immunoprecipitation experiments) (other) MNTNKKQRLDMEKPTMSIKNYFVDKTNESLAPRRTLKVIQPSASGCLVGRTKEPVKNSTKRKLWNDQLTSKKAKVEVAVDPEHRENKDCSSEAYDLMVKETPTCLYWKEVAEERRKALYEALQENEKLHKEIELKDEEIARLKQENDELMELAGHVQYMANMIERLTGNAPRSLEDLKDLDLEEARFEDEADMAEARIEDETDMARPSNSDQNMDAHTV	–	–	no binding	no binding
